# B1: HRP-labeled PNA lectin (peanut agglutinin) (other, UniProt P02872 24-259, looked up)
# chain: AETVSFNFNSFSEGNPAINFQGDVTVLSNGNIQLTNLNKVNSVGRVLYAMPVRIWSSATGNVASFLTSFSFEMKDIKDYDPADGIIFFIAPEDTQIPAGSIGGGTLGVSDTKGAGHFVGVEFDTYSNSEYNDPPTDHVGIDVNSVDSVKTVPWNSVSGAVVKVTVIYDSSTKTLSVAVTNDNGDITTIAQVVDLKAKLPERVKFGFSASGSLGGRQIHLIRSWSFTSTLITTTRRS
# modifications: HRP-labeled
# notes: Lectin used as a blotting reagent; also called peanut lectin
# Key:
# [1] = molecular target: T1, mucin box-deleted mutant of rat neutral ceramidase (delta-mucin CDase), C-terminal myc tag (rat, UniProt Q91XT9 1-761); assay: lectin blot with HRP-labeled PNA lectin after immunoprecipitation from HEK293 lysate
# T1 construct: Expressed in HEK293 cells, immunoprecipitated and blotted; also called Δmucin; Δmucin CDase; not shown: C-terminal Myc-His tag from vector pcDNA3.1/Myc-his(+)
# Procedure: CDase was immunoprecipitated from the cell lysate of HEK293 cells prepared in Example 2, in which Δmucin or wild-type CDase was expressed, by using an anti-CDase antibody. A 100-fold dilution of anti-CDase was coupled with 10 μl of protein A-agarose (trade name, manufactured by SANTA CRUZ) in 100 μl of a reaction buffer (10 mM Tris-HCl, pH 7.5, containing 150 mM NaCl, 1% (v/v) Tritonm X-100 and 0.1% (w/v) BSA) at 4° C. for 2 hours. The product obtained was washed five times with the above reaction buffer. Thereafter, this product was mixed with a CDase sample, obtained by previously heating at 100° C. for 5 minutes in SDS sample buffer [20 mM Tris-HCl, pH 7.5, containing 1% (w/v) SDS and 1% (v/v) 2-mercaptoethanol], and incubated at 4° C. for 18 hours with gentle stirring. Subsequently, the immunoprecipitate was sedimented by centrifugation, washed five times with the above reaction buffer, suspended in 20 μl of the SDS sample buffer, and heated at 100° C. for 5 minutes. The resulting product was subjected to SDS-PAGE and Western blotting as described in Example 2. The PVDF membrane was stained with an anti-Myc antibody or an HRP-labeled PNA lectin. PNA (peanut agglutinin) lectin is a lectin capable of specifically recognizing and binding to the Galβ1,3GalNAc sequence of O-glycan.
# [2] = molecular target: T2, 94-kDa mouse neutral ceramidase from the soluble fraction of the liver, lacking the mucin box (mouse, UniProt Q9JHE3 75-756, limits assumed); assay: lectin blot with HRP-labeled PNA lectin after immunoprecipitation from mouse liver soluble fraction
# T2 construct: The whole entry is named here, and the true chain is shorter at the N-terminus; also called 94-kDa CDase; enzyme in the soluble fraction of the liver
# T2 sequence (Q9JHE3 75-756 limits assumed): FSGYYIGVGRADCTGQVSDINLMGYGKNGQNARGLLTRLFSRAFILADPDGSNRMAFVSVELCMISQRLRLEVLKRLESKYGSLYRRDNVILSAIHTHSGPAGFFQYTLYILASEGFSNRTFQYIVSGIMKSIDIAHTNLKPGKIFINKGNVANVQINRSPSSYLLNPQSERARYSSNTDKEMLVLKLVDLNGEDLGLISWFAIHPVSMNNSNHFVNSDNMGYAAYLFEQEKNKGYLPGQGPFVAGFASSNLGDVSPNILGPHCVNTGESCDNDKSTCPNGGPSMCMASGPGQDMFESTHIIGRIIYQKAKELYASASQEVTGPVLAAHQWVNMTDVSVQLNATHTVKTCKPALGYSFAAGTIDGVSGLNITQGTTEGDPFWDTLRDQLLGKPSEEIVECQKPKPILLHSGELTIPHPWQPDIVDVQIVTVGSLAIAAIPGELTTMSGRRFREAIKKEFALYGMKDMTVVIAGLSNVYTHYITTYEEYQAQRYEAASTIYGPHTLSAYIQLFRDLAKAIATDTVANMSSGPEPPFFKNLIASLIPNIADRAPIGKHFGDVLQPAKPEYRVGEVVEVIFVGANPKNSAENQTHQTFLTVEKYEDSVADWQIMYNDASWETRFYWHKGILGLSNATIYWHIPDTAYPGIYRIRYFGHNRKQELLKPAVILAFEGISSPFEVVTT
# T1 sequence (Q91XT9 other isoform, or with tags, fused parts or gaps mutant): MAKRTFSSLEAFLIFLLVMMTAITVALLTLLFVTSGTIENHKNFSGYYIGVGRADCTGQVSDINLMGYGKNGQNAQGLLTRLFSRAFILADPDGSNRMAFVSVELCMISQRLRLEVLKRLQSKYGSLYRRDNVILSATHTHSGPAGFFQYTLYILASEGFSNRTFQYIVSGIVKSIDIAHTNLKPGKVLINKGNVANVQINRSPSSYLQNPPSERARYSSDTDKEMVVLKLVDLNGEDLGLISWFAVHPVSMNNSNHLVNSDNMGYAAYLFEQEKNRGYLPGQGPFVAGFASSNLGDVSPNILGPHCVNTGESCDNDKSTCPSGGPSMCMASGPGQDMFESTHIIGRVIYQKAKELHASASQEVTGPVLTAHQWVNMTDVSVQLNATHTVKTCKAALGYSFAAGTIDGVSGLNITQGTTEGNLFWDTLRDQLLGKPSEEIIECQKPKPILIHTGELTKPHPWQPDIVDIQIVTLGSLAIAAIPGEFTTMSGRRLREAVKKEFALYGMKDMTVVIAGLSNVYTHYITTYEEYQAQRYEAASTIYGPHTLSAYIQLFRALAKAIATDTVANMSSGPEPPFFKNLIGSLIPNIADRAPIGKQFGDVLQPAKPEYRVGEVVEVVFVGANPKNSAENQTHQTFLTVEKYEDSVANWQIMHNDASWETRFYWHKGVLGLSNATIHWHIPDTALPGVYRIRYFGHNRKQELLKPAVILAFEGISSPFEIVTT
binder,measurement,setting,value
B1,binding result,[1],no binding
same,binding result,[2],no binding

# Reference: patent publication US20040053296A1 (TAKARA BIO, published 2004)
